Assay results: US20100015650

Molecular target: T1, BRB1 tyrosine kinase substrate peptide
T1 chain: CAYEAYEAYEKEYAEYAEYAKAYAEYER

B1: EphA5 (protein)
chain: SGSCCECGCGRASSLCAVAHPSLIWRCGYSKAKQDPEEEKMHFHNGHIKLPGVRTYIDPHTYEDPNQAVHEFAKEIEASCITIERVIGAGEFGEVCSGRLKLPGKRELPVAIKTLKVGYTEKQRRDFLGEASIMGQFDHPNIIHLEGVVTKSKPVMIVTEYMENGSLDTFLKKNDGQFTVIQLVGMLRGISAGMKYLSDMGYVHRDLAARNILINSNLVCKVSDFGLSRVLEDDPEAAYTTRGGKIPIRWTAPEAIAFRKFTSASDVWSYGIVMWEVVSYGERPYWEMTNQDVIKAVEEGYRLPSPMDCPAALYQLMLDCWQKERNSRPKFDEIVNMLDKLIRNPSSLKTLVNASCRVSNLLAEHSPLGSGAYRSVGEWLEAIKMGRYTEIFMENGYSSMDAVAQVTLEDLRRLGVTLVGHQKKIMNSLQEMKVQLVNGMVPL
- Signal to Noise Ratio with BRB1 Peptide (TR-FRET kinase assay; kinase 1 nM): 35.5

B2: EphA6 (protein)
chain: TGRCQWYIKAKMKSEEKRRNHLQNGHLRFPGIKTYIDPDTYEDPSLAVHEFAKEIDPSRIRIERVIGAGEFGEVCSGRLKTPGKREIPVAIKTLKGGHMDRQRRDFLREASIMGQFDHPNIIRLEGVVTKRSFPAIGVEAFCPSFLRAGFLNSIQAPHPVPGGGSLPPRIPAGRPVMIVVEYMENGSLDSFLRKHDGHFTVIQLVGMLRGIASGMKYLSDMGYVHRDLAARNILVNSNLVCKVSDFGLSRVLEDDPEAAYTTTGGKIPIRWTAPEAIAYRKFSSASDAWSYGIVMWEVMSYGERPYWEMSNQDVILSIEEGYRLPAPMGCPASLHQLMLHCWQKERNHRPKFTDIVSFLDKLIRNPSALHTLVEDILVMPESPGEVPEYPLFVTVGDWLDSIKMGQYKNNFVAAGFTTFDLISRMSIDDIRRIGVILIGHQRRIVSSIQTLRLHMMHIQEKGFHV
- Signal to Noise ratio with BRB1 Peptide (TR-FRET kinase assay; kinase 0.5 nM): 5.4

B3: EphA8 (protein)
chain: KKRHCGYSKAFQDSDEEKMHYQNGQAPPPVFLPLHHPPGKLPEPQFYAEPHTYEEPGRAGRSFTREIEASRIHIEKIIGSGDSGEVCYGRLRVPGQRDVPVAIKALKAGYTERQRRDFLSEASIMGQFDHPNIIRLEGVVTRGRLAMIVTEYMENGSLDTFLRTHDGQFTIMQLVGMLRGVGAGMRYLSDLGYVHRDLAARNVLVDSNLVCKVSDFGLSRVLEDDPDAAYTTTGGKIPIRWTAPEAIAFRTFSSASDVWSFGVVMWEVLAYGERPYWNMTNRDVISSVEEGYRLPAPMGCPHALHQLMLDCWHKDRAQRPRFSQIVSVLDALIRSPESLRATATVSRCPPPAFVRSCFDLRGGSGGGGGLTVGDWLDSIRMGRYRDHFAAGGYSSLGMVLRMNAQDVRALGITLMGHQKKILGSIQTMRAQLTSTQGPRRHL
- Signal to Noise ratio with BRB1 Peptide (TR-FRET kinase assay; kinase 0.25 nM): 32.3

B4: EphB1 (protein)
chain: SRKRAYSKEAVYSDKLQHYSTGRGSPGMKIYIDPFTYEDPNEAVREFAKEIDVSFVKIEEVIGAGEFGEVYKGRLKLPGKREIYVAIKTLKAGYSEKQRRDFLSEASIMGQFDHPNIIRLEGVVTKSRPVMIITEFMENGALDSFLRQNDGQFTVIQLVGMLRGIAAGMKYLAEMNYVHRDLAARNILVNSNLVCKVSDFGLSRYLQDDTSDPTYTSSLGGKIPVRWTAPEAIAYRKFTSASDVWSYGIVMWEVMSFGERPYWDMSNQDVINAIEQDYRLPPPMDCPAALHQLMLDCWQKDRNSRPRFAEIVNTLDKMIRNPASLKTVATITAVPSQPLLDRSIPDFTAFTTVDDWLSAIKMVQYRDSFLTAGFTSLQLVTQMTSEDLLRIGITLAGHQKKILNSIHSMRVQISQSPTAMA
- Signal to Noise ratio with BRB1 Peptide (TR-FRET kinase assay; kinase 0.5 nM): 29.9

B5: ARG (protein)
chain: GQQVGRVGEAPGLQQPQPRGIRGSSAARPSGRRRDPAGRTTETGFNIFTQHDHFASCVEDGFEGDKTGGSSPEALHRPYGCDVEPQALNEAIRWSSKENLLGATESDPNLFVALYDFVASGDNTLSITKGEKLRVLGYNQNGEWSEVRSKNGQGWVPSNYITPVNSLEKHSWYHGPVSRSAAEYLLSSLINGSFLVRESESSPGQLSISLRYEGRVYHYRINTTADGKVYVTAESRFSTLAELVHHHSTVADGLVTTLHYPAPKCNKPTVYGVSPIHDKWEMERTDITMKHKLGGGQYGEVYVGVWKKYSLTVAVKTLKEDTMEVEEFLKEAAVMKEIKHPNLVQLLGVCTLEPPFYIVTEYMPYGNLLDYLRECNREEVTAVVLLYMATQISSAMEYLEKKNFIHRDLAARNCLVGENHVVKVADFGLSRLMTGDTYTAHAGAKFPIKWTAPESLAYNTFSIKSDVWAFGVLLWEIATYGMSPYPGIDLSQVYDLLEKGYRMEQPEGCPPKVYELMRACWKWSPADRPSFAETHQAFETMFHDSSISEEVAEELGRAASSSSVVPYLPRLPILPSKTRTLKKQVENKENIEGAQDATENSASSLAPGFIRGAQASSGSPALPRKQRDKSPSSLLEDAKETCFTRDRKGGFFSSFMKKRNAPTPPKRSSSFREMENQPHKKYELTGNFSSVASLQHADGFSFTPAQQEANLVPPKCYGGSFAQRNLCNDDGGGGGGSGTAGGGWSGITGFFTPRLIKKTLGLRAGKPTASDDTSKPFPRSNSTSSMSSGLPEQDRMAMTLPRNCQRSKLQLERTVSTSSQPEENVDRANDMLPKKSEESAAPSRERPKAKLLPRGATALPLRTPSGDLAITEKDPPGVGVAGVAAAPKGKEKNGGARLGMAGVPEDGEQPGWPSPAKAAPVLPTTHNHKVPVLISPTLKHTPADVQLIGTDSQGNKFKLLSEHQVTSSGDKDRPRRVKPKCAPPPPPVMRLLQHPSICSDPTEEPTALTAGQSTSETQEGGKKAALGAVPISGKAGRPVMPPPQVPLPTSSISPAKMANGTAGTKVALRKTKQAAEKISADKISKEALLECADLLSSALTEPVPNSQLVDTGHQLLDYCSGYVDCIPQTRNKFAFREAVSKLELSLQELQVSSAAAGVPGTNPVLNNLLSCVQEISDVVQR
- Signal to Noise ratio with BRB1 Peptide (TR-FRET kinase assay; kinase 0.5 nM): 10.6

B6: EphB2 (protein)
chain: CNRRGFERADSEYTDKLQHYTSGHMTPGMKIYIDPFTYEDPNEAVREFAKEIDISCVKIEQVIGAGEFGEVCSGHLKLPGKREIFVAIKTLKSGYTEKQRRDFLSEASIMGQFDHPNVIHLEGVVTKSTPVMIITEFMENGSLDSFLRQNDGQFTVIQLVGMLRGIAAGMKYLADMNYVHRDLAARNILVNSNLVCKVSDFGLSRFLEDDTSDPTYTSALGGKIPIRWTAPEAIQYRKFTSASDVWSYGIVMWEVMSYGERPYWDMTNQDVINAIEQDYRLPPPMDCPSALHQLMLDCWQKDRNHRPKFGQIVNTLDKMIRNPNSLKAMAPLSSGINLPLLDRTIPDYTSFNTVDEWLEAIKMGQYKESFANAGFTSFDVVSQMMMEDILRVGVTLAGHQKKILNSIQVMRAQMNQIQSVEG
- Signal to Noise ratio with BRB1 Peptide (TR-FRET kinase assay; kinase 0.25 nM): 28.8

B7: EphB3 (protein)
chain: CLRKQRHGSDSEYTEKLQQYIAPGMKVYIDPFTYEDPNEAVREFAKEIDVSCVKIEEVIGAGEFGEVCRGRLKQPGRREVFVAIKTLKVGYTERQRRDFLSEASIMGQFDHPNIIRLEGVVTKSRPVMILTEFMENCALDSFLRLNDGQFTVIQLVGMLRGIAAGMKYLSEMNYVHRDLAARNILVNSNLVCKVSDFGLSRFLEDDPSDPTYTSSLGGKIPIRWTAPEAIAYRKFTSASDVWSYGIVMWEVMSYGERPYWDMSNQDVINAVEQDYRLPPPMDCPTALHQLMLDCWVRDRNLRPKFSQIVNTLDKLIRNAASLKVIASAQSGMSQPLLDRTVPDYTTFTTVGDWLDAIKMGRYKESFVSAGFASFDLVAQMTAEDLLRIGVTLAGHQKKILSSIQDMRLQMNQTLPVQV
- Signal to Noise ratio with BRB1 Peptide (TR-FRET kinase assay; kinase 0.1 nM): 24.7
